125 sequences from the supplement of paper PMC9112550, “Optimization of the antimicrobial peptide Bac7 by deep mutational scanning” (BMC Biology, 2022) can be followed below.

For this data set, the system named is Escherichia coli TOP10. Kind of data set: shrunken log2 fold change of peptide-encoding DNA abundance (4.5 h post-induction vs induction); higher = less antimicrobial activity (less host growth inhibition). The settings on record: time post-induction: 4.5 h; library: site-saturation at positions 5, 18, 19, 20.
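Further: peptides expressed intracellularly from a pBAD plasmid library in pooled LB shake-flask culture, induced with 0.3% L-arabinose, DNA abundance read by NGS, three biological replicates, DESeq2 with apeglm shrinkage.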

Take RRIRRRPPRLPRPRPRPLETPRP: the “shrunken log2 fold change” value turned out to be 1.01.
Regarding RRIRFRPPRLPRPRPRPRCTPRP, the “shrunken log2 fold change” value stood at 0.0551.
For RRIRSRPPRLPRPRPRPMGGPRP, the “shrunken log2 fold change” value stood at 0.334.
In the case of RRIRVRPPRLPRPRPRPLTRPRP, the “shrunken log2 fold change” value turned out to be 0.196.
Regarding RRIRCRPPRLPRPRPRPPFCPRP, the “shrunken log2 fold change” value turned out to be 0.291.
As to RRIRVRPPRLPRPRPRPKQSPRP, the “shrunken log2 fold change” value worked out at 0.0123.
With RRIRSRPPRLPRPRPRPPDYPRP, the “shrunken log2 fold change” value was -0.0864.
RRIRNRPPRLPRPRPRPCILPRP: the “shrunken log2 fold change” value was -0.119.
With RRIRMRPPRLPRPRPRPLFPPRP, the “shrunken log2 fold change” value is 0.152.
As for RRIRIRPPRLPRPRPRPNMSPRP, the “shrunken log2 fold change” value was -0.783.
The figure for RRIRTRPPRLPRPRPRPCHSPRP is -0.039; for RRIRVRPPRLPRPRPRPRTFPRP it is -0.284.
Turning to RRIRWRPPRLPRPRPRPLWRPRP, the “shrunken log2 fold change” value came to 3.71.
Consider RRIRHRPPRLPRPRPRPLSYPRP, for which the “shrunken log2 fold change” value was -0.895.
As for RRIRIRPPRLPRPRPRPLTTPRP, the figure is -0.148; as for RRIRDRPPRLPRPRPRPFYCPRP, -0.0803; as for RRIRMRPPRLPRPRPRPNMNPRP, -0.056.
With RRIRYRPPRLPRPRPRPSTIPRP, the “shrunken log2 fold change” value was -0.324.
As for RRIRCRPPRLPRPRPRPRTLPRP, the figure is 0.209; as for RRIRLRPPRLPRPRPRPQYSPRP, -0.1.
As for RRIRYRPPRLPRPRPRPHSNPRP, the figure is -0.0748; as for RRIRNRPPRLPRPRPRPWLMPRP, -0.13; as for RRIRKRPPRLPRPRPRPSIRPRP, -0.375.
In the case of RRIRWRPPRLPRPRPRPECHPRP, the “shrunken log2 fold change” value turned out to be 0.563.
Consider RRIRPRPPRLPRPRPRPMLIPRP, for which the “shrunken log2 fold change” value is -0.553.
Consider RRIRARPPRLPRPRPRPTCLPRP, for which the “shrunken log2 fold change” value amounted to 0.0548.
As for RRIRRRPPRLPRPRPRPMVTPRP, the figure is 0.247; as for RRIRRRPPRLPRPRPRPNTKPRP, 0.191.
With RRIRQRPPRLPRPRPRPYAYPRP, the “shrunken log2 fold change” value is -0.0214.
Regarding RRIRPRPPRLPRPRPRPPFYPRP, the “shrunken log2 fold change” value was 0.0888.
RRIRWRPPRLPRPRPRPPGRPRP: the “shrunken log2 fold change” value came out at 0.877.
The figure for RRIRKRPPRLPRPRPRPEQYPRP is 0.104; for RRIRWRPPRLPRPRPRPNSPPRP it is -0.255.
With RRIRKRPPRLPRPRPRPRCRPRP, the “shrunken log2 fold change” value was 0.506.
Turning to RRIRNRPPRLPRPRPRPNASPRP, the “shrunken log2 fold change” value was found to be 0.374.
In the case of RRIRSRPPRLPRPRPRPRRDPRP, the “shrunken log2 fold change” value turned out to be 0.297.
As for RRIRLRPPRLPRPRPRPNKDPRP, the figure is -0.683; as for RRIRVRPPRLPRPRPRPFFLPRP, -0.294.
RRIRLRPPRLPRPRPRPMTNPRP: the “shrunken log2 fold change” value was -0.0811.
Turning to RRIRKRPPRLPRPRPRPSEQPRP, the “shrunken log2 fold change” value amounted to 0.0244.
For RRIRLRPPRLPRPRPRPGFGPRP, the “shrunken log2 fold change” value is 0.189.
As for RRIRYRPPRLPRPRPRPMEAPRP, the figure is -0.163; as for RRIRTRPPRLPRPRPRPFLEPRP, -0.417; as for RRIRTRPPRLPRPRPRPDRIPRP, 0.00097.
With RRIRLRPPRLPRPRPRPQHGPRP, the “shrunken log2 fold change” value is -0.0844.
The figure for RRIRARPPRLPRPRPRPVSVPRP is 0.137.
Take RRIRYRPPRLPRPRPRPQRVPRP: the “shrunken log2 fold change” value is -0.393.
As to RRIRLRPPRLPRPRPRPNCIPRP, the “shrunken log2 fold change” value is -0.603.
As for RRIRDRPPRLPRPRPRPDKGPRP, the figure is -0.0944; as for RRIRYRPPRLPRPRPRPSPPPRP, -0.469.
On to RRIRGRPPRLPRPRPRPLMWPRP, for which the “shrunken log2 fold change” value was found to be 0.4.
On to RRIRCRPPRLPRPRPRPKCRPRP, for which the “shrunken log2 fold change” value is -0.281.
For the sequence RRIRLRPPRLPRPRPRPRDNPRP, the “shrunken log2 fold change” value was -0.127.
The figure for RRIRARPPRLPRPRPRPCDAPRP is 0.344; for RRIRCRPPRLPRPRPRPWDGPRP it is 0.0877; for RRIRERPPRLPRPRPRPYGQPRP it is -0.315.
As for RRIRCRPPRLPRPRPRPILDPRP, the “shrunken log2 fold change” value was -0.122.
The figure for RRIRYRPPRLPRPRPRPASYPRP is -0.156.
As for RRIRKRPPRLPRPRPRPKILPRP, the “shrunken log2 fold change” value is 0.362.
Turning to RRIRIRPPRLPRPRPRPETEPRP, the “shrunken log2 fold change” value was 0.0848.
RRIRVRPPRLPRPRPRPPFQPRP: the “shrunken log2 fold change” value is 0.164.
For the sequence RRIRCRPPRLPRPRPRPQERPRP, the “shrunken log2 fold change” value is -0.028.
Turning to RRIRGRPPRLPRPRPRPQSDPRP, the “shrunken log2 fold change” value came to 0.254.
Consider RRIRCRPPRLPRPRPRPQVHPRP, for which the “shrunken log2 fold change” value is -0.233.
With RRIRCRPPRLPRPRPRPDVAPRP, the “shrunken log2 fold change” value is 0.298.
Turning to RRIRFRPPRLPRPRPRPFAMPRP, the “shrunken log2 fold change” value is -0.326.
Consider RRIRQRPPRLPRPRPRPFNNPRP, for which the “shrunken log2 fold change” value is -0.476.
As for RRIRERPPRLPRPRPRPFHHPRP, the figure is 0.0149; as for RRIRTRPPRLPRPRPRPEDWPRP, 0.386.
As to RRIRARPPRLPRPRPRPSRMPRP, the “shrunken log2 fold change” value was 0.362.
On to RRIRERPPRLPRPRPRPIVRPRP, for which the “shrunken log2 fold change” value is -0.0604.
For the sequence RRIRCRPPRLPRPRPRPDKMPRP, the “shrunken log2 fold change” value is -0.156.
As for RRIRQRPPRLPRPRPRPQDVPRP, the figure is -0.0199; as for RRIRHRPPRLPRPRPRPPECPRP, 0.331; as for RRIRYRPPRLPRPRPRPMTWPRP, -0.31.
For the sequence RRIRNRPPRLPRPRPRPTIGPRP, the “shrunken log2 fold change” value was -0.00466.
Consider RRIRWRPPRLPRPRPRPLFLPRP, for which the “shrunken log2 fold change” value was -0.318.
The figure for RRIRWRPPRLPRPRPRPQHRPRP is 0.25; for RRIRHRPPRLPRPRPRPVAPPRP it is 0.222; for RRIRRRPPRLPRPRPRPVNKPRP it is 0.169.
As for RRIRQRPPRLPRPRPRPGFEPRP, the “shrunken log2 fold change” value is 0.809.
The figure for RRIRDRPPRLPRPRPRPFSDPRP is -0.016; for RRIRLRPPRLPRPRPRPTMKPRP it is -0.0755; for RRIRKRPPRLPRPRPRPNRKPRP it is 0.0065.
As to RRIRLRPPRLPRPRPRPMMWPRP, the “shrunken log2 fold change” value was found to be 0.148.
Take RRIRVRPPRLPRPRPRPCCRPRP: the “shrunken log2 fold change” value was found to be 0.0482.
The figure for RRIRFRPPRLPRPRPRPWYTPRP is -0.38; for RRIRNRPPRLPRPRPRPMRFPRP it is -0.00968; for RRIRGRPPRLPRPRPRPITLPRP it is 0.217.
Turning to RRIRWRPPRLPRPRPRPEPSPRP, the “shrunken log2 fold change” value is 0.39.
As for RRIRTRPPRLPRPRPRPCRIPRP, the figure is -0.0965; as for RRIRARPPRLPRPRPRPMESPRP, 0.0501.
As for RRIRCRPPRLPRPRPRPWFPPRP, the figure is -0.699; as for RRIRERPPRLPRPRPRPFCRPRP, -0.0911; as for RRIRWRPPRLPRPRPRPLENPRP, 0.0135.
As for RRIRCRPPRLPRPRPRPYNLPRP, the figure is -0.986; as for RRIRKRPPRLPRPRPRPAKMPRP, 0.376; as for RRIRNRPPRLPRPRPRPWQKPRP, -0.18.
As for RRIRIRPPRLPRPRPRPFRNPRP, the “shrunken log2 fold change” value is -0.902.
With RRIRERPPRLPRPRPRPNGSPRP, the “shrunken log2 fold change” value was -0.263.
In the case of RRIRARPPRLPRPRPRPCFQPRP, the “shrunken log2 fold change” value was 0.105.
RRIRHRPPRLPRPRPRPCYKPRP: the “shrunken log2 fold change” value is -0.522.
As for RRIRCRPPRLPRPRPRPEHLPRP, the figure is -0.0545.
RRIRCRPPRLPRPRPRPFTGPRP: the “shrunken log2 fold change” value is -0.0668.
Regarding RRIRQRPPRLPRPRPRPFFYPRP, the “shrunken log2 fold change” value was -0.257.
Turning to RRIRDRPPRLPRPRPRPVKFPRP, the “shrunken log2 fold change” value came to 0.284.
As to RRIRKRPPRLPRPRPRPPDQPRP, the “shrunken log2 fold change” value was determined as 0.802.
As to RRIRLRPPRLPRPRPRPWAVPRP, the “shrunken log2 fold change” value was 0.0558.
Take RRIRQRPPRLPRPRPRPTRCPRP: the “shrunken log2 fold change” value was 0.747.
The figure for RRIRFRPPRLPRPRPRPCREPRP is -0.0892; for RRIRCRPPRLPRPRPRPYYQPRP it is -1.14; for RRIRIRPPRLPRPRPRPLEKPRP it is -0.0295.
As to RRIRKRPPRLPRPRPRPFDNPRP, the “shrunken log2 fold change” value came out at 0.057.
For RRIRMRPPRLPRPRPRPHQFPRP, the “shrunken log2 fold change” value is -0.0236.
Regarding RRIRERPPRLPRPRPRPHVLPRP, the “shrunken log2 fold change” value was -0.202.
With RRIRCRPPRLPRPRPRPFSDPRP, the “shrunken log2 fold change” value is -0.165.
On to RRIRNRPPRLPRPRPRPYTSPRP, for which the “shrunken log2 fold change” value is -0.325.
The figure for RRIRNRPPRLPRPRPRPVTRPRP is -0.124; for RRIRSRPPRLPRPRPRPTSAPRP it is 0.321; for RRIRKRPPRLPRPRPRPKCLPRP it is 0.118.
On to RRIRARPPRLPRPRPRPYLFPRP, for which the “shrunken log2 fold change” value is -0.494.
Consider RRIRLRPPRLPRPRPRPLGRPRP, for which the “shrunken log2 fold change” value was 0.0726.
In the case of RRIRSRPPRLPRPRPRPTTRPRP, the “shrunken log2 fold change” value was 0.222.
As for RRIRGRPPRLPRPRPRPPLYPRP, the “shrunken log2 fold change” value worked out at 0.459.
Take RRIRCRPPRLPRPRPRPTVNPRP: the “shrunken log2 fold change” value is -0.184.
